Source: the RNAGym collection of RNA variant scans (doi:10.7554/elife.80360)

B1: HDV Ribozyme (parent)
chain: GGCCGGCAUGGUCCCAGCCUCCUCGCUGGCGCCGGCUGGGCAACAUUCCGAGGGGACCGUCCCCUCGGUAAUGGCGAAUGGGACCCA

Variants of: B1
Assay: self-cleavage, relative activity (ratio to wild type); higher = more cleavage; co-transcriptional

Row | Variant | self-cleavage
1 | GGCCGGCAUGGUCCCAGCCUCCUCGCGGGCGCCGGCUGGGCAACAUUCCGAGGGGACCGUCCCCUCGGUAAUGGCGAAUCGGACCCA [U27G G80C] | 0.213
2 | GGCCGGCAUGGUCCCAGCCUCCUCGCGGGCGCCGGCCGGGCAACAUUCCGAGGGGACCGUCCCCUCGGUAAUGGCGAAUGGGACCCA [U27G U37C] | 0.762
3 | GGCCGGCAUGGUCCCAGCCUCCUCGCGGGCGCCGGCUAGGCAACAUUCCGAGGGGACCGUCCCCUCGGUAAUGGCGAAUGGGACCCA [U27G G38A] | 0.128
4 | GGCCGGCAUGGUCCCAGCCUCCUCGCGGGCGCCGGCUGGGCAACAUUCCGAGGGGACCGUCCCCUCGGUAAUGGCGAACGGGACCCA [U27G U79C] | 0.308
5 | GGCCGGCAUGGUCCCAGCCUCCUCGCUAGCGCCGGCUGGGCGACAUUCCGAGGGGACCGUCCCCUCGGUAAUGGCGAAUGGGACCCA [G28A A42G] | 0.369
6 | GGCCGGCAUGGUCCCAGCCUCCUCGCUAGCGCCGGCUGGGCAACAUUCCGAGGGGACCGUCCCCUCGGUAAUGGCGUAUGGGACCCA [G28A A77U] | 0.104
7 | GGCCGGCAUGGUCCCAGCCUCCUCGCGGGCGCCGGCUGGGCAACAUUCCGAGGGGACCGUCCCCUCGGUAAGGGCGAAUGGGACCCA [U27G U72G] | 0.978
8 | GGCCGGCAUGGUCCCAGCCUCCUCGCGGGCGCCGGCUGAGCAACAUUCCGAGGGGACCGUCCCCUCGGUAAUGGCGAAUGGGACCCA [U27G G39A] | 0.196
9 | GGCCGGCAUGGUCCCAGCCUCCUCGCGGGCGCCGGCUGGGCAACAUUCCGAGGGGACCGUCCCCCCGGUAAUGGCGAAUGGGACCCA [U27G U65C] | 0.965
10 | GGCCGGCAUGGUCCCAGCCUCCUCGCGGGCGCCGGCUGGGCAACAUUCCGAGGGGACCGUCCCCGCGGUAAUGGCGAAUGGGACCCA [U27G U65G] | 0.95
11 | GGCCGGCAUGGUCCCAGCCUCCUCGCGGGCGCCGGCUGGGCAACAUUCCGAGGGGACCGUCCCCACGGUAAUGGCGAAUGGGACCCA [U27G U65A] | 1.03
12 | GGCCGGCAUGGUCCCAGCCUCCUCGCGGGCGCCGGCUGGGCAACAUUCCGAGGGGACCGUCCCCUCGAUAAUGGCGAAUGGGACCCA [U27G G68A] | 0.858
13 | GGCCGGCAUGGUCCCAGCCUCCUCGCGGGCGCCGGCUGGGCAACAUUCCGAGGGGACCGUCCCCUCGUUAAUGGCGAAUGGGACCCA [U27G G68U] | 0.858
14 | GGCCGGCAUGGUCCCAGCCUCCUCGCGGGCGCCGGCUGGGCAACAUUCCAAGGGGACCGUCCCCUCGGUAAUGGCGAAUGGGACCCA [U27G G50A] | 0.923
15 | GGCCGGCAUGGUCCCAGCCUCCUCGCGGGCGCCGGCUGGGCAACAUUCCGAGGGGACCGUCCCCUCGGUAAUGGCAAAUGGGACCCA [U27G G76A] | 0.98
16 | GGCCGGCAUGGUCCCAGCCUCCUCGCGGGCGCCGGCUGGGCAACAUUCCGAGGGGACCGUCCCCUCGGUAAUGGCUAAUGGGACCCA [U27G G76U] | 0.855

Row | Variant | self-cleavage
17 | GGCCGGCAUGGUCCCAGCCUCCUCGCGGGCGCCGGCUGGGCAACAUUCCGAGGGGACCGUCCCCUCGGUAAUGGCCAAUGGGACCCA [U27G G76C] | 1.14
18 | GGCCGGCAUGGUCCCAGCCUCCUCGCGGGCGCCGGCUGGGCAACAUUCCGAGGGGACCGUCCCCUCGGUAAUGCCGAAUGGGACCCA [U27G G74C] | 0.302
19 | GGCCGGCAUGGUCCCAGCCUCCUCGCGGGCUCCGGCUGGGCAACAUUCCGAGGGGACCGUCCCCUCGGUAAUGGCGAAUGGGACCCA [U27G G31U] | 0.293
20 | GGCCGGCAUGGUCCCAGCCUCCUCGCGGGCCCCGGCUGGGCAACAUUCCGAGGGGACCGUCCCCUCGGUAAUGGCGAAUGGGACCCA [U27G G31C] | 0.344
21 | GGCCGGCAUGGUCCCAGCCUCCUCGCGGGCGCCGGCUGGGCAACAUUCCGAGGGGACCGUCCCCUCGGUAAUUGCGAAUGGGACCCA [U27G G73U] | 0.0723
22 | GGCCGGCAUGGUCCCAGCCUCCUCGCGGGCGCCGGCUGGGCAACAUUCCGAGGGGACCGUCCCCUCGGUAAUAGCGAAUGGGACCCA [U27G G73A] | 0.396
23 | GGCCGGCAUGGUCCCAGCCUCCUCGCUAGCGCCGGCUGGGCAACAUUCCGAGGGGACCGUCCCCUCGGUAAUGGCGAAUGGGACCCC [G28A A87C] | 0.0676
24 | GGCCGGCAUGGUCCCAGCCUCCUCGCGGGCGCCGGCUGGGCAACAUUCCGAGGGGACCGUCCCCUCGGUAAUGGCGAAUGGAACCCA [U27G G82A] | 0.534
25 | GGCCGGCAUGGUCCCAGCCUCCUCGCGGGCGCCGGCUGGGCAACAUUCCGAGGUGACCGUCCCCUCGGUAAUGGCGAAUGGGACCCA [U27G G54U] | 0.997
26 | GGCCGGCAUGGUCCCAGCCUCCUCGCGGGCGCCGGCUGGGCAACAUUCCGAGGAGACCGUCCCCUCGGUAAUGGCGAAUGGGACCCA [U27G G54A] | 0.578
27 | GGCCGGCAUGGUCCCAGCCUCCUCGCGGGCGCCGGCUGGGCAACAUUCCGAGGGGACCCUCCCCUCGGUAAUGGCGAAUGGGACCCA [U27G G59C] | 1.03
28 | GGCCGGCAUGGUCCCAGCCUCCUCGCGGGCGCCGGCUGGGCAACAUUCCGAGGGGACCUUCCCCUCGGUAAUGGCGAAUGGGACCCA [U27G G59U] | 1.03
29 | GGCCGGCAUGGUCCCAGCCUCCUCGCGGGCGCCGGCUGGGCAACAUUCCGAGGGGACCAUCCCCUCGGUAAUGGCGAAUGGGACCCA [U27G G59A] | 0.855
30 | GGCCGGCAUGGUCCCAGCCUCCUCGCGGGCGCCGUCUGGGCAACAUUCCGAGGGGACCGUCCCCUCGGUAAUGGCGAAUGGGACCCA [U27G G35U] | 0.277
31 | GGCCGGCAUGGUCCCAGCCUCCUCGCGGGCGCCGACUGGGCAACAUUCCGAGGGGACCGUCCCCUCGGUAAUGGCGAAUGGGACCCA [U27G G35A] | 0.295
32 | GGCCGGCAUGGUCCCAGCCUCCUCGCGGGCGCCGCCUGGGCAACAUUCCGAGGGGACCGUCCCCUCGGUAAUGGCGAAUGGGACCCA [U27G G35C] | 0.0594
